Patent publication US20190153113A1, “CD39 VASCULAR ISOFORM TARGETING AGENTS” (INNATE PHARMA, priority 2015, published 2019)
Where a chain is given by its changes, count along the chain named. Names may count otherwise.

How the values were obtained:
[1] = target: T1, human CD39 at cell surface (Homo sapiens, UniProt P49961); test: CD39 down-modulation / internalization on Ramos cells; assay type: cell-based; settings: Ramos human lymphoma cells, 10 μg/ml, 4° C. or 37° C.
T1 construct: cells that endogenously express CD39 at their surface, e.g. regulatory T (TReg) cells, B cells, cancer cells, lymphoma cells (e.g. Ramos cells); endogenous in cells; host or cells: Ramos human lymphoma cells
T1 sequence (P49961 1-510): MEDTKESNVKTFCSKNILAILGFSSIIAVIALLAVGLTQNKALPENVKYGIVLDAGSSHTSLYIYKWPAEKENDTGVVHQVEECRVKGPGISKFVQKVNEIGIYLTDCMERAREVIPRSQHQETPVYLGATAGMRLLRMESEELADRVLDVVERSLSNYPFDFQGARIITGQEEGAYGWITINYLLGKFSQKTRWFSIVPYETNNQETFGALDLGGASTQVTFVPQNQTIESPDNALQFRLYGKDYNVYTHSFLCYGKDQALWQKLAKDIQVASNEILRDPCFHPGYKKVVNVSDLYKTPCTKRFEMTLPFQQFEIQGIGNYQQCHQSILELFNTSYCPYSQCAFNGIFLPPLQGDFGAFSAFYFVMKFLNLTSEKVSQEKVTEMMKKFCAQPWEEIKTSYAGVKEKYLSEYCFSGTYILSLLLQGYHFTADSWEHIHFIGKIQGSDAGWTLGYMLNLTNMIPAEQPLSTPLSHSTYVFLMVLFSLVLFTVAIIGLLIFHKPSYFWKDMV

[2] = target: T2, CD39-L2 (Homo sapiens, UniProt O75354, K202E); test: ELISA titration on recombinant human CD39 isoforms; assay type: binding; settings: recombinant protein coated
T2 sequence (O75354 1-484 K202E): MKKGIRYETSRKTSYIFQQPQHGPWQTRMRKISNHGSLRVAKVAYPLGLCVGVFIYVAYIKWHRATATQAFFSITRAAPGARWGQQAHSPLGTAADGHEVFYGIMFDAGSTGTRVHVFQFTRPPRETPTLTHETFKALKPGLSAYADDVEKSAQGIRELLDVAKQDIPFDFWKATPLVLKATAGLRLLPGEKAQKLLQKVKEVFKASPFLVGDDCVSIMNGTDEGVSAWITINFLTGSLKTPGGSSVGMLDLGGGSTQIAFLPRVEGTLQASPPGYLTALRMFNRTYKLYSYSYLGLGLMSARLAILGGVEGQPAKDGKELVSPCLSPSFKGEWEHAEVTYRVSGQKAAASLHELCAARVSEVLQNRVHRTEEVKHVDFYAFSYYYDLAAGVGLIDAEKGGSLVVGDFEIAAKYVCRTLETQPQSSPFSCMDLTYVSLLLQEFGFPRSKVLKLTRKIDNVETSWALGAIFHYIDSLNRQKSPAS
Protocol: (§1) Wells were washed in TBS Tween 20, and further saturated 2H at RT in TBS Blocking buffer. Dose range concentration of primary antibody was incubated in TBS blocking buffer for 2h at RT. Wells were washed in TBS Tween 20. […] Optical density was measured on Enspire at OD=450.

[3] = target: T3, vascular CD39 (Homo sapiens, UniProt P49961); test: ELISA titration on recombinant human CD39 isoforms; assay type: binding; settings: recombinant protein coated
T3 construct: recombinant human CD39-M2 extracellular domain recombinant protein; made in house; host or cells: CHO cells (secreted, purified from supernatant)
T3 sequence (P49961 38-478 limits assumed): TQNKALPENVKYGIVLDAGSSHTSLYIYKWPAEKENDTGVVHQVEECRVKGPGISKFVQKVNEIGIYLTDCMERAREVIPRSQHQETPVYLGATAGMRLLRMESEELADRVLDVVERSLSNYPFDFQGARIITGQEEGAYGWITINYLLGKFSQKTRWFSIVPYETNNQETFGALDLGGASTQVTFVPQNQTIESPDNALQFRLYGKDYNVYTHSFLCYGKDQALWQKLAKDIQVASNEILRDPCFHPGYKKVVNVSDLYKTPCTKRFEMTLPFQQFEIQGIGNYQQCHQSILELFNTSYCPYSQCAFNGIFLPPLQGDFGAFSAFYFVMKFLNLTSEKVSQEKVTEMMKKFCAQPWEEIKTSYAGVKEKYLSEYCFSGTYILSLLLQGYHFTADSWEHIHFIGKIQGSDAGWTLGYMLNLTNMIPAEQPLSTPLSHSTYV
Protocol: as §1

[4] = target: T4, CD39-L4 (Homo sapiens, UniProt O75356); test: ELISA titration on recombinant human CD39 isoforms; assay type: binding; settings: recombinant protein coated
T4 sequence (O75356 25-428): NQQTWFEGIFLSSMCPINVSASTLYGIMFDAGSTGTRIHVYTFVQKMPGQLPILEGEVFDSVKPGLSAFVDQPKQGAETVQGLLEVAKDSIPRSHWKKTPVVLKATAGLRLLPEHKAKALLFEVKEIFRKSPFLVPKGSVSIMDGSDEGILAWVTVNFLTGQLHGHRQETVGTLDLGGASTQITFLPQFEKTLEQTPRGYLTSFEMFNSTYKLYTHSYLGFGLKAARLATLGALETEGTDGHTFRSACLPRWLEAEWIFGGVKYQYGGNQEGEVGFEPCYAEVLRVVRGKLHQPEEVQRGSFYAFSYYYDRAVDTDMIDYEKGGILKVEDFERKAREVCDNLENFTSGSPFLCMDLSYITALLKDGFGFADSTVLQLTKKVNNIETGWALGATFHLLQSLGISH
Protocol: as §1

[5] = target: T5, CD39 mutant 4 (D150A, E153S, R154A, S157K, N158A, L278F) (human, UniProt P49961 1-510); test: flow cytometry, HEK293T cells transfected with mutant 4
T5 construct: Transfected in HEK293T cells
T5 chain: T1 sequence (P49961 1-510) with D150A, E153S, R154A, S157K, N158A, L278F

B1: I-392: anti-CD39 antibody, VH SEQ ID NO: 8 and VL SEQ ID NO: 9, chimeric human IgG1 with N297Q mutation (antibody, V domains shown)
VH: QIQLVQSGPEVKKPRETVKISCKASGYTFTHYGMNWVKQAPGKGLKWMGWINTYTGEPTYADDFKGRFAFSLEASASTAYLQINNLKNEDTATYFCARRRYEGNYVFYYFDYWGQGTTLTVSS
VL: DIQMTQSPASLSASVGETVTITCRASENIYSYFSWYQQKQGKSPQLLVYTAKTLAEGVPSRFSGSGSGTQFSLKINSLQPEDFGSYYCQHHYVTPYTFGGGTKLEIK
[1]
  CD39 down modulation / internalization: do not induce CD39 down modulation nor CD39 internalization
[2]
  binding to CD39-L2: not to any of the CD39 isoforms
[3]
  binding to vascular CD39: bound to the vascular CD39
[4]
  binding to CD39-L4: not to any of the CD39 isoforms

B2: Antibody I-391, Fc silent recombinant chimeric human IgG1 with heavy chain N297Q mutation (antibody, V domains shown)
VH: QIQLVQSGPELKKPGETVKISCKASGYTFRNYGMNWVKQAPGKGLKWMGWINTYTGEPTYADDFKGRFAFSLATSASTAYLQISNLKNEDTATYFCARKAYYGSNYYFDYWGQGTTLTVSS
VL: DIVMTQSHKFMSTSVGDRVSITCKASQDVSTAVAWYQQKPGQSPKLLIYSASYRYTGVPDRFTGSGSGTDFTFTISTVQAEDLAVYYCQQHYTTPPYTFGGGTKLEIKR
[5]
  binding result: binds
